± gives the standard deviation of the averaged measurements.
Legend:
Saccharomyces cerevisiae [1] = assay: protein stability index of tFT-peptide fusion (C-terminal peptide) (PSI (0-1 scale)); higher = more stable (slower turnover)
Experimental: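 MPS profiling in S. cerevisiae of the tFT-X12 degron library: putative degron peptides plus stable controls, 12 aa, fused to the C-terminus of a sfGFP-mCherry timer. Cells are FACS-sorted into 8 mCherry/sfGFP bins and deep-sequenced. PSI runs from 0 (unstable) to 1 (stable). Backgrounds are wild type, das1Δ and doa10Δ at 30 °C, and wild type, das1Δ, cdc34-1 and cdc53-1 at 37 °C; 2-3 technical replicates each.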

Saccharomyces cerevisiae [2] = assay: as above; details: genetic background: wild type; temperature: 30 C
[3] = genetic background: cdc34-1, temperature: 37 C
[4] = genetic background: cdc53-1, temperature: 37 C
[5] = genetic background: das1 deletion, temperature: 30 C
[6] = genetic background: das1 deletion, temperature: 37 C
[7] = genetic background: doa10 deletion, temperature: 30 C
[8] = genetic background: wild type, temperature: 30 C
[9] = genetic background: wild type, temperature: 37 C
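Note: PSI is a weighted mean of sequencing reads over stability bins, variants kept only with over 10 reads, mCherry proximal and sfGFP distal, peptide attached via GGGS linker.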

Row | Sequence | protein stability index (Saccharomyces cerevisiae [1]; [3]) | protein stability index (Saccharomyces cerevisiae [1]; [4]) | protein stability index (Saccharomyces cerevisiae [1]; [5]) | protein stability index (Saccharomyces cerevisiae [1]; [6]) | protein stability index (Saccharomyces cerevisiae [1]; [7]) | protein stability index (Saccharomyces cerevisiae [1]; [8]) | protein stability index (Saccharomyces cerevisiae [1]; [9]) | protein stability index (Saccharomyces cerevisiae [2])
1 | GMNGLFFIAMLG | 0.53 ± 0.033 | 0.645 ± 0.041 | 0.514 ± 0.018 | 0.642 ± 0.035 | 0.195 ± 0.016 | 0.195 ± 0.029 | 0.398 ± 0.015 | 0.362 ± 0.02
2 | GRLVPVILLKLV | 0.3011 ± 0.0019 | 0.471 ± 0.015 | 0.441 ± 0.031 | 0.5625 ± 0.00087 | 0.0719 ± 0.018 | 0.0651 ± 0.015 | 0.0817 ± 0.0024 | 0.099045 ± 4e-05
3 | GRRPVVDFLPCL | 0.692 ± 0.045 | 0.7222 ± 0.004 | 0.697 ± 0.029 | 0.745 ± 0.009 | 0.7146 ± 0.0027 | 0.719 ± 0.037 | 0.742 ± 0.023 | 0.736 ± 0.0074
4 | GSITFFKMVQSG | 0.656 ± 0.021 | 0.748 ± 0.012 | 0.622 ± 0.021 | 0.744 ± 0.012 | 0.376 ± 0.014 | 0.417 ± 0.028 | 0.687 ± 0.011 | 0.469 ± 0.023
5 | GSLPERPLRYVC | 0.516 ± 0.035 | 0.6878 ± 0.004 | 0.651 ± 0.017 | 0.7239 ± 0.0021 | 0.1 ± 0.028 | 0.0973 ± 0.013 | 0.148 ± 0.016 | 0.162 ± 0.01
6 | GSRRYYFTWVYQ | 0.454 ± 0.038 | 0.697 ± 0.013 | 0.655 ± 0.019 | 0.722 ± 0.019 | 0.0716 ± 0.016 | 0.0885 ± 0.015 | 0.0876 ± 0.024 | 0.1178 ± 0.00012
7 | GTEFSNVITYLV | 0.713 ± 0.018 | 0.758 ± 0.018 | 0.6288 ± 0.003 | 0.775 ± 0.021 | 0.34 ± 0.0043 | 0.389 ± 0.027 | 0.6103 ± 0.0027 | 0.493 ± 0.08
8 | GTLVFTYLVLRC | 0.0997 ± 0.012 | 0.0693 ± 0.0078 | 0.197 ± 0.02 | 0.252 ± 0.032 | 0.365 ± 0.027 | 0.167 ± 0.035 | 0.229 ± 0.0083 | 0.314 ± 0.008
9 | GTRAGNPDRQRS | 0.678 ± 0.052 | 0.759 ± 0.011 | 0.638 ± 0.034 | 0.714 ± 0.025 | 0.656 ± 0.021 | 0.632 ± 0.022 | 0.706 ± 0.016 | 0.706 ± 0.013
10 | GVRAGVRRAGVG | 0.308 ± 0.019 | 0.418 ± 0.0075 | 0.399 ± 0.0055 | 0.414 ± 0.014 | 0.3927 ± 0.0033 | 0.382 ± 0.0068 | 0.402 ± 0.0045 | 0.402 ± 0.011
11 | GVRRRQLIWSVC | 0.532 ± 0.022 | 0.644 ± 0.014 | 0.468 ± 0.024 | 0.656 ± 0.0066 | 0.145 ± 0.0088 | 0.164 ± 0.039 | 0.28 ± 0.011 | 0.241 ± 0.092
12 | GVVCWLVVTGFL | 0.3865 ± 0.0018 | 0.48 ± 0.0076 | 0.286 ± 0.058 | 0.524 ± 0.0095 | 0.255 ± 0.0087 | 0.3 ± 0.019 | 0.463 ± 0.052 | 0.429 ± 0.013
13 | GVVVGVLLVCGW | 0.268 ± 0.028 | 0.435 ± 0.0061 | 0.28 ± 0.037 | 0.489 ± 0.0051 | 0.223 ± 0.016 | 0.265 ± 0.013 | 0.4614 ± 0.0016 | 0.36 ± 0.0081
14 | HCNRLIFWYKCT | 0.508 ± 0.082 | 0.745 ± 0.025 | 0.656 ± 0.052 | 0.723 ± 0.035 | 0.189 ± 0.0086 | 0.224 ± 0.032 | 0.298 ± 0.0068 | 0.288 ± 0.0074
15 | HDLRRRVVSVMV | 0.48 ± 0.046 | 0.4601 ± 0.0032 | 0.337 ± 0.025 | 0.55 ± 0.022 | 0.258 ± 0.013 | 0.297 ± 0.03 | 0.47615 ± 0.00044 | 0.372 ± 0.061
16 | HFLRYCSWFGLL | 0.656 ± 0.032 | 0.745 ± 0.015 | 0.6558 ± 0.0024 | 0.781 ± 0.013 | 0.142 ± 0.014 | 0.171 ± 0.017 | 0.353 ± 0.0095 | 0.15 ± 0.0097
17 | HNLIRKHAKESS | 0.63 ± 0.083 | 0.702 ± 0.0032 | 0.641 ± 0.034 | 0.699 ± 0.015 | 0.171 ± 0.036 | 0.249 ± 0.016 | 0.459 ± 0.054 | 0.394 ± 0.085
18 | HPLYWRCVVVLN | 0.213 ± 0.034 | 0.243 ± 0.024 | 0.211 ± 0.026 | 0.3733 ± 0.00077 | 0.073 ± 0.012 | 0.066 ± 0.031 | 0.0862 ± 0.015 | 0.15 ± 0.044
19 | HSPPVPFPPPTS | 0.647 ± 0.068 | 0.733 ± 0.035 | 0.651 ± 0.034 | 0.72 ± 0.0074 | 0.688 ± 0.012 | 0.672 ± 0.017 | 0.694 ± 0.024 | 0.358 ± 0.033
20 | HVRLRFQPVLFV | 0.527 ± 0.027 | 0.5455 ± 0.0014 | 0.404 ± 0.029 | 0.5487 ± 0.0044 | 0.356 ± 0.01 | 0.382 ± 0.026 | 0.5139 ± 0.0024 | 0.462 ± 0.0049

Row | Sequence | protein stability index (Saccharomyces cerevisiae [1]; [3]) | protein stability index (Saccharomyces cerevisiae [1]; [4]) | protein stability index (Saccharomyces cerevisiae [1]; [5]) | protein stability index (Saccharomyces cerevisiae [1]; [6]) | protein stability index (Saccharomyces cerevisiae [1]; [7]) | protein stability index (Saccharomyces cerevisiae [1]; [8]) | protein stability index (Saccharomyces cerevisiae [1]; [9]) | protein stability index (Saccharomyces cerevisiae [2])
21 | HVSVIRRGICCA | 0.266 ± 0.014 | 0.2978 ± 0.0018 | 0.271 ± 0.026 | 0.398 ± 0.0092 | 0.233 ± 0.0093 | 0.278 ± 0.015 | 0.3675 ± 0.0027 | 0.374 ± 0.034
22 | ICQLLKFPLFWC | 0.542 ± 0.025 | 0.567 ± 0.024 | 0.521 ± 0.024 | 0.7207 ± 0.0058 | 0.311 ± 0.019 | 0.288 ± 0.026 | 0.4916 ± 0.0032 | 0.113 ± 0.034
23 | ICSRCLVTVLSC | 0.4098 ± 0.0039 | 0.445 ± 0.0063 | 0.296 ± 0.037 | 0.514 ± 0.0071 | 0.198 ± 0.0024 | 0.217 ± 0.039 | 0.367 ± 0.015 | 0.311 ± 0.017
24 | ICWVSLYFSMLV | 0.457 ± 0.018 | 0.479 ± 0.019 | 0.373 ± 0.018 | 0.5069 ± 0.0045 | 0.3348 ± 0.00038 | 0.333 ± 0.025 | 0.464 ± 0.028 | 0.406 ± 0.084
25 | IFAWPFSATIPW | 0.74 ± 0.022 | 0.81258 ± 0.00076 | 0.696 ± 0.012 | 0.80758 ± 0.00033 | 0.706 ± 0.0086 | 0.7 ± 0.011 | 0.788 ± 0.032 | 0.784 ± 0.021
26 | IFFYPFLIFCFV | 0.251 ± 0.022 | 0.281 ± 0.026 | 0.267 ± 0.027 | 0.396 ± 0.019 | 0.2722 ± 0.00072 | 0.238 ± 0.032 | 0.332 ± 0.012 | 0.325 ± 0.018
27 | IFVLLSYYPLFV | 0.263 ± 0.016 | 0.279 ± 0.012 | 0.265 ± 0.019 | 0.422 ± 0.012 | 0.288 ± 0.016 | 0.243 ± 0.027 | 0.391 ± 0.0059 | 0.338 ± 0.018
28 | IGSARIKLLCYH | 0.6024 ± 0.0044 | 0.705 ± 0.014 | 0.592 ± 0.017 | 0.7434 ± 0.0024 | 0.124 ± 0.017 | 0.165 ± 0.027 | 0.331 ± 0.031 | 0.213 ± 0.0061
29 | ILHRRCGLLLQI | 0.47 ± 0.04 | 0.506 ± 0.0066 | 0.447 ± 0.015 | 0.538 ± 0.017 | 0.273 ± 0.0094 | 0.278 ± 0.025 | 0.4161 ± 0.0032 | 0.343 ± 0.016
30 | ISVSVVFFVLRF | 0.27578 ± 0.00014 | 0.369 ± 0.031 | 0.265 ± 0.041 | 0.429 ± 0.015 | 0.294 ± 0.017 | 0.279 ± 0.019 | 0.411 ± 0.011 | 0.3965 ± 0.0021
31 | IYPPVSVTNLLV | 0.6646 ± 0.0022 | 0.723 ± 0.0079 | 0.646 ± 0.036 | 0.723 ± 0.014 | 0.227 ± 0.029 | 0.255 ± 0.032 | 0.461 ± 0.0062 | 0.357 ± 0.1
32 | KAEKNSKKTSTE | 0.685 ± 0.073 | 0.721 ± 0.013 | 0.658 ± 0.064 | 0.68229 ± 0.0003 | 0.633 ± 0.031 | 0.649 ± 0.033 | 0.702 ± 0.021 | 0.698 ± 0.044
33 | KALSSSYFGTRL | 0.69 ± 0.025 | 0.745 ± 0.015 | 0.648 ± 0.014 | 0.743 ± 0.0082 | 0.649 ± 0.019 | 0.6755 ± 0.0058 | 0.7128 ± 0.007 | 0.735 ± 0.062
34 | KCEKGLYCCIAF | 0.608 ± 0.055 | 0.68 ± 0.036 | 0.518 ± 0.031 | 0.664 ± 0.0099 | 0.516 ± 0.025 | 0.534 ± 0.027 | 0.626 ± 0.018 | 0.504 ± 0.073
35 | KEKGVTKIRISS | 0.6166 ± 0.0019 | 0.6861 ± 0.0021 | 0.632 ± 0.024 | 0.7071 ± 0.0024 | 0.1724 ± 0.00028 | 0.195 ± 0.037 | 0.377 ± 0.024 | 0.295 ± 0.0055
36 | KEKKKTKHNKIG | 0.587 ± 0.059 | 0.7521 ± 0.0072 | 0.631 ± 0.014 | 0.742 ± 0.011 | 0.184 ± 0.029 | 0.155 ± 0.032 | 0.314 ± 0.02 | 0.216 ± 0.038
37 | KIVNNTKKNKCH | 0.638 ± 0.048 | 0.684 ± 0.0087 | 0.652 ± 0.039 | 0.738 ± 0.012 | 0.153 ± 0.021 | 0.195 ± 0.046 | 0.26 ± 0.058 | 0.226 ± 0.025
38 | KLALVYLLIRGL | 0.423 ± 0.015 | 0.496 ± 0.028 | 0.366 ± 0.031 | 0.5681 ± 0.00085 | 0.0641 ± 0.01 | 0.0862 ± 0.02 | 0.0975 ± 0.0076 | 0.125 ± 0.06
39 | KLLGVLFVLFPG | 0.486 ± 0.012 | 0.599 ± 0.034 | 0.367 ± 0.031 | 0.569 ± 0.01 | 0.324 ± 0.0068 | 0.336 ± 0.026 | 0.527 ± 0.018 | 0.443 ± 0.017
